T1: p67phox, endogenous in THP-1 cells (human, UniProt P19878 1-526)
T1 sequence: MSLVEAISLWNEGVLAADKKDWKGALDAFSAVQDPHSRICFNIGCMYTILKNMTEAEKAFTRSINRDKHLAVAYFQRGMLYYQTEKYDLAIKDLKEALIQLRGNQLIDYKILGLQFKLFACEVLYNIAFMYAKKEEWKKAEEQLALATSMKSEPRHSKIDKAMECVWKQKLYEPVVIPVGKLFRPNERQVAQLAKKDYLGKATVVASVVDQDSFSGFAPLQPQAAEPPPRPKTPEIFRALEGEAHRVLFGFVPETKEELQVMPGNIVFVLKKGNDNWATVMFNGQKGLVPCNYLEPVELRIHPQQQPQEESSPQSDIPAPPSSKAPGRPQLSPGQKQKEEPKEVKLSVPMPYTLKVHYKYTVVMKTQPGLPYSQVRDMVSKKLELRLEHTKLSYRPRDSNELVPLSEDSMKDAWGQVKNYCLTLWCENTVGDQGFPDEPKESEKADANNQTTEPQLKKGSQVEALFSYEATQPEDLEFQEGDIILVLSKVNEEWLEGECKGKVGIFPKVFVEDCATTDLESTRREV

B1: p22phox, endogenous in THP-1 cells (other)
chain: GQIEWAMWANEQALASGLILITGGIVATAGRFTQWYFGAYSIVAGVFVCLLEYPRGKRKKGSTMERWGQKYMTAVVKLFGPFTRNYYVRAVLHLLLSVPAGFLLATILGTACLAIASGIYLLAAVRGEQWTPIEPKPRERPQIGGTIKQPPSNPPPRPPAEARKKPSEEEAAVAAGGPPGGPQVNPIPVTDEVV
B2: neutrophil cytosol factor 1 (p47phox), endogenous in THP-1 cells (other)
chain: MGDTFIRHIALLGFEKRFVPSQHYVYMFLVKWQDLSEKVVYRRFTEIYEFHKTLKEMFPIEAGAINPENRIIPHLPAPKWFDGQRAAENRQGTLTEYCSTLMSLPTKISRCPHLLDFFKVRPDDLKLPTDNQTKKPETYLMPKDGKSTATDITGPIILQTYRAIANYEKTSGSEMALSTGDVVEVVEKSESGWWFCQMKAKRGWIPASFLEPLDSPDETEDPEPNYAGEPYVAIKAYTAVEGDEVSLLEGEAVEVIHKLLDGWWVIRKDDVTGYFPSMYLQKSGQDVSQAQRQIKRGAPPRRSSIRNAHSIHQRSRKRLSQDAYRRNSVRFLQQRRRQARPGPQSPGSPLEEERQTQRSKPQPAVPPRPSADLILNRCSESTKRKLASAV
notes: Human by the cell line; also called p47phox, 45K

Legend:
[1] = molecular target: unlabeled TBK1 (in vitro titration); test: fluorescence titration of BODIPY FL-labeled MPT63 with unlabeled TBK1, curve fitting, 25 C
[2] = molecular target: unlabeled p47phox (in vitro titration); test: fluorescence titration of BODIPY FL-labeled MPT63 with unlabeled p47phox, curve fitting, 25 C
[3] = molecular target: unlabeled HK2 (in vitro titration); test: fluorescence titration of BODIPY FL-labeled MPT64 with unlabeled HK2, curve fitting, 25 C
[4] = molecular target: unlabeled TBK1 (in vitro titration); test: fluorescence titration of BODIPY FL-labeled MPT64 with unlabeled TBK1, curve fitting, 25 C
[5] = molecular target: B2; test: co-IP in THP-1 cells treated with p47 peptide
[6] = molecular target: T1, p67phox, endogenous in THP-1 cells; test: co-IP in THP-1 cells treated with p47 peptide

Chain of unlabeled TBK1 (in vitro titration) (Q9UHD2 whole entry): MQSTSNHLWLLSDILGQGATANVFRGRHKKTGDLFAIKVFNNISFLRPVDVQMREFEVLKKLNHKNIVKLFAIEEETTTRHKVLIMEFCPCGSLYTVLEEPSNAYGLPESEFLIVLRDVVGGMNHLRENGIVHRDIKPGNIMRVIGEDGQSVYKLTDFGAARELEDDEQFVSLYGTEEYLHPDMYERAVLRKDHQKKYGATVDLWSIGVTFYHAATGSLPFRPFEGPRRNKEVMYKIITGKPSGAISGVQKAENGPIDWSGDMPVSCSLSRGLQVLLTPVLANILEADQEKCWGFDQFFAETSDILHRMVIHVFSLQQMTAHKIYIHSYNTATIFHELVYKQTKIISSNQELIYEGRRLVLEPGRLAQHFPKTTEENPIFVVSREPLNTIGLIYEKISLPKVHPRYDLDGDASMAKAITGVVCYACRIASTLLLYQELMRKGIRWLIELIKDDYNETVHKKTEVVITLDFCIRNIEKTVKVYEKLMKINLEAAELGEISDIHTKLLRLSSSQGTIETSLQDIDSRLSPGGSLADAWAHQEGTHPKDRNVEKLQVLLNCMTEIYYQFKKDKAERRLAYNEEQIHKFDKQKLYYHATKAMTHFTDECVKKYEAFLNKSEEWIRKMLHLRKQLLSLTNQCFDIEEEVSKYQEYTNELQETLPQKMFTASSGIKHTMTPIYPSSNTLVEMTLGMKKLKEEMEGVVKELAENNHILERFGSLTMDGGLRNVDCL

## recombinant MPT63 (rMPT63) (from UniProt P9WIP1 30-159)
[1]
  Kd: 178 nM
[2]
  Kd: 345 nM

## recombinant MPT64 (rMPT64) (from UniProt P9WIN9 24-228)
[3]
  Kd: 134 nM
[4]
  Kd: 193 nM

## B1
[5]
  binding result: binds

## B2
[6]
  binding result: binds
